In test [1] the target is T1, MC1-R (B-16 mouse melanoma cells) (Mus musculus, UniProt Q01727).
T1 construct: B-16 mouse melanoma cells (containing MC1-R); endogenous in cells; host or cells: B-16 mouse melanoma cells
The test can be described thus: Competitive inhibition binding assay, 125I-NDP-alpha-MSH, B-16 mouse melanoma cell membranes. The conditions noted are these: 0.4 nM 125I-NDP-alpha-MSH. Here is the method: (§1) Representative Peptides of this Invention. Representative peptides of this invention were made using library and synthesis methods described herein, and selected peptides were tested using a binding assay. […] The peptides were synthesized using conventional peptide synthesis methods, and were complexed with rhenium using the methods described herein.
(§2) The competitive inhibition binding assay was conducted using membranes prepared from hMC4-R and B-16 mouse melanoma cells (containing MC1-R) using 0.4 nM ^125I-NDP-alpha-MSH (New England Nuclear, Boston, Mass., USA) in 50 mM HEPES buffer containing 1 mM MgCl2, 2 mM CaCl2, and 5 mM KCl, at pH 7.2. The assay tube also contained a chosen concentration of the test peptide of this invention, complexed to a rhenium metal ion as indicated, for determining its efficacy in inhibiting the binding of ^125I-NDP-alpha-MSH to its receptor. Non-specific binding was measured by complete inhibition of binding of ^125I-NDP-alpha-MSH in the assay with the presence of 1 μM alpha-MSH. Incubation was for 90 minutes at room temperature, after which the assay mixture was filtered and the membranes washed three times with ice cold buffer. The filter was dried and counted in a gamma counter for remaining radioactivity bound to the membranes. 100% specific binding was defined as the difference in radioactivity (cpm) bound to cell membranes in the absence and presence of 1 μM alpha-MSH. The cpm obtained in presence of test compounds were normalized with respect to 100% specific binding to determine the percent inhibition of ^125I-NDP-alpha MSH binding. […]

Another test has as its target T2, hMC4-R (Homo sapiens, UniProt P32245).
T2 construct: expressed in transfected cells; host or cells: 293 cells
Put plainly: Competitive inhibition binding assay, 125I-NDP-alpha-MSH, hMC4-R membranes. The conditions noted are these: 0.4 nM 125I-NDP-alpha-MSH. Here is the method:
as §1, §2

Where [2] appears, read: Conc. cut off 10 μM, B-16 mouse melanoma cell membranes.
Setting [3] is: Conc. cut off 10 μM, hMC4-R membranes.
Where [4] appears, read: Conc. cut off 1 μM, B-16 mouse melanoma cell membranes.
[5] abbreviates: Conc. cut off 1 μM, hMC4-R membranes.
The mark [6] stands for this setting: Conc. cut off 1 μM test peptide.
Setting [7] is: Conc. cut off 10 μM test peptide.

Where no end group is shown, it is not given here. [ ]: non-standard residue; d: D form. The star is where a group is joined. Phe(2,4-Cl2) = N[C@@H](Cc1ccc(Cl)cc1Cl)C(=O)O; Hydrocinnamoyl = O=C(CCc1ccccc1)*; hPhe = N[C@@H](CCc1ccccc1)C(=O)O; Tic = O=C(O)[C@@H]1Cc2ccccc2CN1; Aic = NC1(C(=O)O)Cc2ccccc2C1; Tle = CC(C)(C)[C@H](N)C(=O)O; Heptanoyl = CCCCCCC(=O)*; Nle = CCCC[C@H](N)C(=O)O; 2Abz = Nc1ccccc1C(=O)O; Ac3c = NC1(C(=O)O)CC1; Bn = c1ccc(C*)cc1; βAla = NCCC(=O)O

T1 sequence (Q01727 whole entry): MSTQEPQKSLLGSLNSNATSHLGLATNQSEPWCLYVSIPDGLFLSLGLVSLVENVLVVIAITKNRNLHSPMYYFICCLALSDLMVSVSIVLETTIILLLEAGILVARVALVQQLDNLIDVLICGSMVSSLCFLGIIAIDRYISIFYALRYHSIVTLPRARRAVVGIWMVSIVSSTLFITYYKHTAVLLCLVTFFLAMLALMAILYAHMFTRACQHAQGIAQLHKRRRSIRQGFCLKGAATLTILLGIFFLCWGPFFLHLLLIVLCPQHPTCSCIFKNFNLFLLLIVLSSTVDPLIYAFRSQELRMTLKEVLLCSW
T2 sequence (P32245 whole entry): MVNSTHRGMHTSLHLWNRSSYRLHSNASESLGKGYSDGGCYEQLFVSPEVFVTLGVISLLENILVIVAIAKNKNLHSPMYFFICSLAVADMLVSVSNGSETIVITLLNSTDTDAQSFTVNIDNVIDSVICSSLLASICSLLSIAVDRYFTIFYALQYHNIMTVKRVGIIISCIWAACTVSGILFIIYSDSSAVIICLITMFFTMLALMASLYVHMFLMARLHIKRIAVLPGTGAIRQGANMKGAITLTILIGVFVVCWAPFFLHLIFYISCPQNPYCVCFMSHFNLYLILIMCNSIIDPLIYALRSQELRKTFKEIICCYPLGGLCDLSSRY

PL-1110 (KHFCW-NH2; also: ReO complex): the “% Inhibition MC1-R (B-16)” value in test [1] (setting [2]) amounted to 11%. Also, the “% Inhibition MC4-R” value in the test with hMC4-R (setting [3]) turned out to be 36%.

As to “PL-1091 ([βAla]GC(Bn)CW-NH2; also: ReO complex)”, in test [1] (setting [4]), the “% Inhibition MC1-R (B-16)” value is on record as −1%. The “% Inhibition MC4-R” value in the test with hMC4-R (setting [5]) is on record as 13%.

As to “PL-1394 (Ac-HRWCF-NH2; also: ReO[V] metal complex)”, the results for the “% Inhibition MC1-R (B-16)” value in test [1] (setting [4]) and in test [1] (setting [2]) were 27% and 84%, respectively. Also, the entries for the “% Inhibition MC4-R” value with hMC4-R (setting [5]) and with hMC4-R (setting [3]) were 0% and 59%, respectively.

Consider “PL-1636 (Ac-[Nle]AH[Ac3c]RCW-NH2; also: ReO[V] complex)”, for which the “% Inhibition MC1-R (B-16)” value in test [1] (setting [6]) came out at 20%. The “% Inhibition MC4-R” value in the test with hMC4-R (setting [6]) came out at 38%.

In the case of “PL-1649 (Ac-HGGCW-NH2; also: ReO[V] metal complex)”, the “% Inhibition MC1-R (B-16)” value in test [1] (setting [7]) stood at 19%. For the same substance, the “% Inhibition MC4-R” value with hMC4-R (setting [7]) was found to be 62%.

Take “PL-1512 (Ac-RFFNACF-NH2; also: ReO[V] metal complex)”: the “% Inhibition MC1-R (B-16)” value in test [1] (setting [6]) was determined as 20%. Besides, the “% Inhibition MC4-R” value with hMC4-R (setting [6]) is recorded as 24%.

Regarding “PL-1416 (Ac-[Nle]AHFRCW-NH2; also: ReO[V] metal complex)”, the “% Inhibition MC1-R (B-16)” value in test [1] (setting [4]) turned out to be 85%. Also, in the test with hMC4-R (setting [5]), the “% Inhibition MC4-R” value was 35%.

Turning to “PL-1863 (Ac-FFC[2Abz]K-NH2; also: ReO[V] complex)”, the “% Inhibition MC1-R (B-16)” value in test [1] (setting [6]) came to 19%. For the same substance, in the test with hMC4-R (setting [6]), the “% Inhibition MC4-R” value was found to be 6%.

Turning to “PL-1405 (Heptanoyl-FHCW-NH2; also: ReO[V] metal complex)”, the “% Inhibition MC1-R (B-16)” value in test [1] (setting [4]) was 20%. Also, the “% Inhibition MC4-R” value with hMC4-R (setting [5]) is given as 27%.

On to “PL-1073 (Ac-A[Tle]CW-NH2; also: ReO complex)”, for which the “% Inhibition MC1-R (B-16)” value in test [1] (setting [4]) is −6%. Moreover, in the test with hMC4-R (setting [5]), the “% Inhibition MC4-R” value is reported as 13%.

Take “PL-1095 ([βAla]G[Lys(Z)]CW-NH2; also: ReO complex)”: the “% Inhibition MC1-R (B-16)” value in test [1] (setting [2]) is listed as 3%. Besides, the “% Inhibition MC4-R” value with hMC4-R (setting [3]) is reported as 8%.

As for “PL-1334 (Hydrocinnamoyl-[Nle]WCR-NH2; also: ReO[V] metal complex)”, the “% Inhibition MC1-R (B-16)” value in test [1] (setting [4]) is on record as 26%. For the same substance, the “% Inhibition MC4-R” value with hMC4-R (setting [5]) was found to be 12%.

Take “PL-1859 (Ac-FFC[Tic]K-NH2; also: ReO[V] complex)”: the “% Inhibition MC1-R (B-16)” value in test [1] (setting [6]) amounted to 9%. Besides, in the test with hMC4-R (setting [6]), the “% Inhibition MC4-R” value was −8%.

As to “PL-809 (Ac-H[hPhe]CW-NH2; also: ReO[V] complex)”, the “% Inhibition MC1-R (B-16)” value in test [1] (setting [4]) is −4%. Besides, the “% Inhibition MC4-R” value in the test with hMC4-R (setting [5]) came out at 0%.

In the case of “PL-1320 (Hydrocinnamoyl-RWC[Nle]-NH2; also: ReO[V] metal complex)”, the “% Inhibition MC1-R (B-16)” value in test [1] (setting [2]) was found to be 96%. Further, the “% Inhibition MC4-R” value with hMC4-R (setting [3]) is given as 94%.

With “PL-1300 (Heptanoyl-ARCW-NH2; also: ReO[V] metal complex)”, the “% Inhibition MC1-R (B-16)” value in test [1] (setting [4]) is 62%. For the same substance, in the test with hMC4-R (setting [5]), the “% Inhibition MC4-R” value is recorded as 22%.

Take “PL-1093 ([βAla]G[Phe(2,4-Cl2)]CW-NH2; also: ReO complex)”: the “% Inhibition MC1-R (B-16)” value in test [1] (setting [4]) is listed as 2%. In addition, in the test with hMC4-R (setting [5]), the “% Inhibition MC4-R” value is listed as 2%.

Regarding “PL-839 (Ac-HFWC-NH2; also: ReO[V] metal complex)”, the “% Inhibition MC1-R (B-16)” value in test [1] (setting [2]) was found to be 12%. Also, in the test with hMC4-R (setting [3]), the “% Inhibition MC4-R” value came out at 9%.

With “PL-1509 (Ac-RFCFNAF-NH2; also: ReO[V] metal complex)”, in test [1] (setting [6]), the “% Inhibition MC1-R (B-16)” value came out at 19%. Further, the “% Inhibition MC4-R” value with hMC4-R (setting [6]) stood at 30%.

With “PL-814 (Ac-HFCW-NH2; also: ReO[V] metal complex)”, the “% Inhibition MC1-R (B-16)” value in test [1] (setting [4]) is −4%. For the same substance, the “% Inhibition MC4-R” value with hMC4-R (setting [5]) stood at 0%.

“PL-1606 (Ac-[Nle]RA[Aic]CW-NH2; also: ReO[V] metal complex)”: the “% Inhibition MC1-R (B-16)” value in test [1] (setting [6]) is listed as 44%. Besides, in the test with hMC4-R (setting [6]), the “% Inhibition MC4-R” value stood at 63%.

For the origin of these results see patent US7049398B1, “Melanocortin metallopeptide constructs, combinatorial libraries and applications” (Palatin Technologies, Inc., priority 1999, dated 2006).
